From the supplement of paper PMC5998384

Key:
HeLa Kyoto [1] = test: solubility in G1/S (NP-40 vs SDS abundance) (log2 ratio); higher = more soluble; settings: cell cycle stage: G1/S
HeLa Kyoto [2] = test: melting temperature (median over replicates), in situ; higher = more thermally stable
HeLa Kyoto [3] = test: solubility change mitosis vs G1/S (difference of NP-40 vs SDS log2 ratios) (log2 ratio difference); higher = more soluble in mitosis
HeLa Kyoto [4] = test: thermal stability score vs G1/S (z-score of summed log2 fold changes over temperatures); higher = more thermally stable than in G1/S
[5] = cell cycle stage: early G1 (4.5 h after nocodazole release)
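Throughout, for melting temperature (median over replicates), in situ: HeLa Kyoto cells synchronized by double thymidine or nocodazole block, proteins quantified by TMT10plex mass spectrometry, three independent biological replicates.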
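Throughout, for solubility change mitosis vs G1/S (difference of NP-40 vs SDS log2 ratios): synchronized HeLa Kyoto cells (double thymidine block for G1/S, nocodazole release for mitosis), protein amounts in NP-40 versus SDS lysates quantified by mass spectrometry, three biological replicates.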
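Throughout, for solubility in G1/S (NP-40 vs SDS abundance): HeLa Kyoto cells arrested at G1/S by double thymidine block, proteins quantified by TMT10plex mass spectrometry in mild NP-40 versus SDS extracts, three biological replicates.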
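Throughout, for thermal stability score vs G1/S (z-score of summed log2 fold changes over temperatures): synchronized HeLa Kyoto cells, proteins quantified by TMT10plex mass spectrometry, three biological replicates, mitosis taken 0.5 h after nocodazole release, G1/S directly after double thymidine block.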

Sequence of BRD2 (chain, as listed by the source): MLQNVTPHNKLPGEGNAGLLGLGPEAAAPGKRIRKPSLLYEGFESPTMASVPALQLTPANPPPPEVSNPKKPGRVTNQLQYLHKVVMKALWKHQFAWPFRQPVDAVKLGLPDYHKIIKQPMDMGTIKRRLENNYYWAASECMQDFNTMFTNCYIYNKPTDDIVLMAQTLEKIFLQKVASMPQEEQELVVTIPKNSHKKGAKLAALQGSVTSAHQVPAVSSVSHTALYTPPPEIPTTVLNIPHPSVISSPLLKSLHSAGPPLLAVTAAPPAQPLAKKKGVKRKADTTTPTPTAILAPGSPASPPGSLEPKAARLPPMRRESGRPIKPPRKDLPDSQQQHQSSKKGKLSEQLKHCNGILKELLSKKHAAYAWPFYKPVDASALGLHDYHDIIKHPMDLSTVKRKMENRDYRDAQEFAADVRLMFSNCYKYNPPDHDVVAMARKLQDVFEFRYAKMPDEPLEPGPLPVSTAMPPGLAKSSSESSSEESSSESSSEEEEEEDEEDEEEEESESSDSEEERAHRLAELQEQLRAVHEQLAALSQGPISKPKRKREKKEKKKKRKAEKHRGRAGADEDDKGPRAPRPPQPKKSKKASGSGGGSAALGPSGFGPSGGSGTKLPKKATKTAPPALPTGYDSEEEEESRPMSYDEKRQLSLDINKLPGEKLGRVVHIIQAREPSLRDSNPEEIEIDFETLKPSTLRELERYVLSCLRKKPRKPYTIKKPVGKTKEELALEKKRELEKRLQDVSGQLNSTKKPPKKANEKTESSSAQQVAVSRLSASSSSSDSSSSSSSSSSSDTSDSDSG

| Substance | solubility in G1/S (log2) (HeLa Kyoto [1]) | melting temperature (HeLa Kyoto [2]; cell cycle stage: G1/S) | melting temperature (HeLa Kyoto [2]; cell cycle stage: mitosis) | solubility change mitosis (log2) (HeLa Kyoto [3]) | thermal stability score (HeLa Kyoto [4]; [5]) | thermal stability score (HeLa Kyoto [4]; cell cycle stage: mitosis) |
| --- | --- | --- | --- | --- | --- | --- |
| MSGGASATGPRRGPPGLEDTTSKKKQKDRANQESKDGDPRKETGSRYVAQAGLEPLASGDPSASASHAAGITGSRHRTRLFFPSSSGSASTPQEEQTKEGACEDPHDLLATPTPELLLDWRQSAEEVIVKLRVGVGPLQLEDVDAAFTDTDCVVRFAGGQQWGGVFYAEIKSSCAKVQTRKGSLLHLTLPKKVPMLTWPSLLVEADEQLCIPPLNSQTCLLGSEENLAPLAGEKAVPPGNDPVSPAMVRSRNPGKDDCAKEEMAVAADAATLVDEPESMVNLAFVKNDSYEKGPDSVVVHVYVKEICRDTSRVLFREQDFTLIFQTRDGNFLRLHPGCGPHTTFRWQVKLRNLIEPEQCTFCFTASRIDICLRKRQSQRWGGLEAPAARVGGAKVAVPTGPTPLDSTPPGGAPHPLTGQEEARAVEKDKSKARSEDTGLDSVATRTPMEHVTPKPETHLASPKPTCMVPPMPHSPVSGDSVEEEEEEEKKVCLPGFTGLVNLGNTCFMNSVIQSLSNTRELRDFFHDRSFEAEINYNNPLGTGGRLAIGFAVLLRALWKGTHHAFQPSKLKAIVASKASQFTGYAQHDAQEFMAFLLDGLHEDLNRIQNKPYTETVDSDGRPDEVVAEEAWQRHKMRNDSFIVDLFQGQYKSKLVCPVCAKVSITFDPFLYLPVPLPQKQKVLPVFYFAREPHSKPIKFLVSVSKENSTASEVLDSLSQSVHVKPENLRLAEVIKNRFHRVFLPSHSLDTVSPSDTLLCFELLSSELAKERVVVLEVQQRPQVPSVPISKCAACQRKQQSEDEKLKRCTRCYRVGYCNQLCQKTHWPDHKGLCRPENIGYPFLVSVPASRLTYARLAQLLEGYARYSVSVFQPPFQPGRMALESQSPGCTTLLSTGSLEAGDSERDPIQPPELQLVTPMAEGDTGLPRVWAAPDRGPVPSTSGISSEMLASGPIEVGSLPAGERVSRPEAAVPGYQHPSEAMNAHTPQFFIYKIDSSNREQRLEDKGDTPLELGDDCSLALVWRNNERLQEFVLVASKELECAEDPGSAGEAARAGHFTLDQCLNLFTRPEVLAPEEAWYCPQCKQHREASKQLLLWRLPNVLIVQLKRFSFRSFIWRDKINDLVEFPVRNLDLSKFCIGQKEEQLPSYDLYAVINHYGGMIGGHYTACARLPNDRSSQRSDVGWRLFDDSTVTTVDESQVVTRYAYVLFYRRRNSPVERPPRAGHSEHHPDLGPAAEAAASQASRIWQELEAEEEPVPEGSGPLGPWGPQDWVGPLPRGPTTPDEGCLRYFVLGTVAALVALVLNVFYPLVSQSRWR [USP19] | -0.0565 | 51.1 °C | 51 °C | -0.0948 | -0.212 | -0.109 |
| MMSDEKNLGVSQKLVSPSRSTSSCSSKQGSRQDSWEVVEGLRGEMNYTQEPPVQKGFLLKKRKWPLKGWHKRFFYLDKGILKYAKSQTDIEREKLHGCIDVGLSVMSVKKSSKCIDLDTEEHIYHLKVKSEEVFDEWVSKLRHHRMYRQNEIAMFPHEVNHFFSGSTITDSSSGVFDSISSRKRSSISKQNLFQTGSNVSFSCGGETRVPLWLQSSEDMEKCSKDLAHCHAYLVEMSQLLQSMDVLHRTYSAPAINAIQGGSFESPKKEKRSHRRWRSRAIGKDAKGTLQVPKPFSGPVRLHSSNPNLSTLDFGEEKNYSDGSETSSEFSKMQEDLCHIAHKVYFTLRSAFNIMSAEREKLKQLMEQDASSSPSAQVIGLKNALSSALAQNTDLKERLRRIHAESLLLDSPAVAKSGDNLAEENSRDENRALVHQLSNESRLSITDSLSEFFDAQEVLLSPSSSENEISDDDSYVSDISDNLSLDNLSNDLDNERQTLGPVLDSGREAKSRRRTCLPAPCPSSSNISLWNILRNNIGKDLSKVAMPVELNEPLNTLQRLCEELEYSELLDKAAQIPSPLERMVYVAAFAISAYASSYYRAGSKPFNPVLGETYECIREDKGFQFFSEQVSHHPPISACHAESRNFVFWQDVRWKNKFWGKSMEIVPIGTTHVTLPVFGDHFEWNKVTSCIHNILSGQRWIEHYGEIVIKNLHDDSCYCKVNFIKAKYWSTNAHEIEGTVFDRSGKAVHRLFGKWHESIYCGGGSSSACVWRANPMPKGYEQYYSFTQFALELNEMDPSSKSLLPPTDTRFRPDQRFLEEGNLEEAEIQKQRIEQLQRERRRVLEENHVEHQPRFFRKSDDDSWVSNGTYLELRKDLGFSKLDHPVLW [OSBPL3] | -0.196 | 48.8 °C | 48.7 °C | -0.0655 | 0.31 | 0.491 |
| MVSHSELRKLFYSADAVCFDVDSTVIREEGIDELAKICGVEDAVSEMTRRAMGGAVPFKAALTERLALIQPSREQVQRLIAEQPPHLTPGIRELVSRLQERNVQVFLISGGFRSIVEHVASKLNIPATNVFANRLKFYFNGEYAGFDETQPTAESGGKGKVIKLLKEKFHFKKIIMIGDGATDMEACPPADAFIGFGGNVIRQQVKDNAKWYITDFVELLGELEE [PSPH] | 0.258 | 56.6 °C | 58.2 °C | -0.049 | -0.555 | -0.969 |
| MEDYEQELCGVEDDFHNQFAAELEVLAELEGASTPSPSGVPLFTAGRPPRTFEEALARGDAASSPAPAASVGSSQGGARKRQVDADLQPAGSLPHAPRIKRPRLQVVKRLNFRSEEMEEPPPPDSSPTDITPPPSPEDLAELWGHGVSEAAADVGLTRASPAARNPVLRRPPILEDYVHVTSTEGVRAYLVLRADPMAPGVQGSLLHVPWRGGGQLDLLGVSLASLKKQVDGERRERLLQEAQKLSDTLHSLRSGEEEAAQPLGAPEEEPTDGQDASSHCLWVDEFAPRHYTELLSDDFTNRCLLKWLKLWDLVVFGHERPSRKPRPSVEPARVSKEATAPGKWKSHEQVLEEMLEAGLDPSQRPKQKVALLCGPPGLGKTTLAHVIARHAGYSVVEMNASDDRSPEVFRTRIEAATQMESVLGAGGKPNCLVIDEIDGAPVAAINVLLSILNRKGPQEVGPQGPAVPSGGGRRRRAEGGLLMRPIICICNDQFAPSLRQLKQQAFLLHFPPTLPSRLVQRLQEVSLRQGMRADPGVLAALCEKTDNDIRACINTLQFLYSRGQRELSVRDVQATRVGLKDQRRGLFSVWQEVFQLPRAQRRRVGQDPALPADTLLLGDGDAGSLTSASQRFYRVLHAAASAGEHEKVVQGLFDNFLRLRLRDSSLGAVCVALDWLAFDDLLAGAAHHSQSFQLLRYPPFLPVAFHVLFASSHTPRITFPSSQQEAQNRMSQMRNLIQTLVSGIAPATRSRATPQALLLDALCLLLDILAPKLRPVSTQLYSTREKQQLASLVGTMLAYSLTYRQERTPDGQYIYRLEPNVEELCRFPELPARKPLTYQTKQLIAREIEVEKMRRAEASARVENSPQVDGSPPGLEGLLGGIGEKGVHRPAPRNHEQRLEHIMRRAAREEQPEKDFFGRVVVRSTAVPSAGDTAPEQDSVERRMGTAVGRSEVWFRFNEGVSNAVRRSLYIRDLL [CHTF18] | 0.136 | 47 °C | 49.3 °C | -0.209 | 1.86 | 2.46 |
| MGTPKPRILPWLVSQLDLGQLEGVAWVNKSRTRFRIPWKHGLRQDAQQEDFGIFQAWAEATGAYVPGRDKPDLPTWKRNFRSALNRKEGLRLAEDRSKDPHDPHKIYEFVNSGVGDFSQPDTSPDTNGGGSTSDTQEDILDELLGNMVLAPLPDPGPPSLAVAPEPCPQPLRSPSLDNPTPFPNLGPSENPLKRLLVPGEEWEFEVTAFYRGRQVFQQTISCPEGLRLVGSEVGDRTLPGWPVTLPDPGMSLTDRGVMSYVRHVLSCLGGGLALWRAGQWLWAQRLGHCHTYWAVSEELLPNSGHGPDGEVPKDKEGGVFDLGPFIVDLITFTEGSGRSPRYALWFCVGESWPQDQPWTKRLVMVKVVPTCLRALVEMARVGGASSLENTVDLHISNSHPLSLTSDQYKAYLQDLVEGMDFQGPGES [IRF3] | -0.0358 | 51.4 °C | 51.7 °C | 0.174 | 0.111 | 1.23 |
| MQPQSVLHSGYFHPLLRAWQTATTTLNASNLIYPIFVTDVPDDIQPITSLPGVARYGVKRLEEMLRPLVEEGLRCVLIFGVPSRVPKDERGSAADSEESPAIEAIHLLRKTFPNLLVACDVCLCPYTSHGHCGLLSENGAFRAEESRQRLAEVALAYAKAGCQVVAPSDMMDGRVEAIKEALMAHGLGNRVSVMSYSAKFASCFYGPFRDAAKSSPAFGDRRCYQLPPGARGLALRAVDRDVREGADMLMVKPGMPYLDIVREVKDKHPDLPLAVYHVSGEFAMLWHGAQAGAFDLKAAVLEAMTAFRRAGADIIITYYTPQLLQWLKEE [ALAD] | 0.106 | 57 °C | 55.2 °C | -0.212 | -2.61 | -2.88 |
| BRD2 | -0.0635 | 47.9 °C | 49.1 °C | 0.202 | 0.901 | 2.29 |
| MMSLSVRPQRRLLSARVNRSQSFAGVLGSHERGPSLSFRSFPVFSPPGPPRKPPALSRVSRMFSVAHPAAKVPQPERLDLVYTALKRGLTAYLEVHQQEQEKLQGQIRESKRNSRLGFLYDLDKQVKSIERFLRRLEFHASKIDELYEAYCVQRRLRDGAYNMVRAYTTGSPGSREARDSLAEATRGHREYTESMCLLESELEAQLGEFHLRMKGLAGFARLCVGDQYEICMKYGRQRWKLRGRIEGSGKQVWDSEETIFLPLLTEFLSIKVTELKGLANHVVVGSVSCETKDLFAALPQVVAVDINDLGTIKLSLEVTWSPFDKDDQPSAASSVNKASTVTKRFSTYSQSPPDTPSLREQAFYNMLRRQEELENGTAWSLSSESSDDSSSPQLSGTARHSPAPRPLVQQPEPLPIQVAFRRPETPSSGPLDEEGAVAPVLANGHAPYSRTLSHISEASVDAALAEASVEAVGPESLAWGPSPPTHPAPTHGEHPSPVPPALDPGHSATSSTLGTTGSVPTSTDPAPSAHLDSVHKSTDSGPSELPGPTHTTTGSTYSAITTTHSAPSPLTHTTTGSTHKPIISTLTTTGPTLNIIGPVQTTTSPTHTMPSPTHTTASPTHTSTSPTHTPTSPTHKTSMSPPTTTSPTPSGMGLVQTATSPTHPTTSPTHPTTSPILINVSPSTSLELATLSSPSKHSDPTLPGTDSLPCSPPVSNSYTQADPMAPRTPHPSPAHSSRKPLTSPAPDPSESTVQSLSPTPSPPTPAPQHSDLCLAMAVQTPVPTAAGGSGDRSLEEALGALMAALDDYRGQFPELQGLEQEVTRLESLLMQRQGLTRSRASSLSITVEHALESFSFLNEDEDEDNDVPGDRPPSSPEAGAEDSIDSPSARPLSTGCPALDAALVRHLYHCSRLLLKLGTFGPLRCQEAWALERLLREARVLEAVCEFSRRWEIPASSAQEVVQFSASRPGFLTFWDQCTERLSCFLCPVERVLLTFCNQYGARLSLRQPGLAEAVCVKFLEDALGQKLPRRPQPGPGEQLTVFQFWSFVETLDSPTMEAYVTETAEEVLLVRNLNSDDQAVVLKALRLAPEGRLRRDGLRALSSLLVHGNNKVMAAVSTQLRSLSLGPTFRERALLCFLDQLEDEDVQTRVAGCLALGCIKAPEGIEPLVYLCQTDTEAVREAARQSLQQCGEEGQSAHRRLEESLDALPRIFGPGSMASTAF [FAM65A] | 0.0594 | 50.1 °C | 49.7 °C | -0.096 | 0.236 | 1.49 |
